Data: article PMC5446653

Molecular target: human coxsackievirus and adenovirus receptor on CHO-CAR cells (human) (UniProt P78310)

Substance: soluble recombinant HAdV-5 fiber knob Y477A (from UniProt P11818 1-581) (domain or fragment)
- inhibition of HAdV-5-EGFP transduction of CHO-CAR cells (EGFP-positive cells by flow cytometry) after preincubation with FK*, 0.0001 to 100 μg/10^5 cells, 1 h at 4°C (μg/10^5 cells): > 100
